Data on one substance can be found in patent publication US20100222256A1.

The target in this experiment is CXCR4 ligand. Kind of experiment: cell-based or functional assay.

Consider T140 (peptide), for which the EC50 (nM): anti-HIV activity, concentration where MT-4 cell death by HIV-1 (IIIB) infection is inhibited by 50% (MTT method) worked out at 3.3 nM.
